We go through two molecules from PMC10065082 (The Journal of Clinical Investigation, 2023).

As usually defined, the stoichiometry N is a count of units in the complex or per binding partner. As usually defined, the Kd is the constant that tells how readily two partners part at equilibrium.

Holding throughout (details): both partners purified
Assay [1] concerns the target T1, WT calmodulin (UniProt P0DP23 1-149).
T1 construct: calmodulin, recombinant; Legends say the recombinant CaMs were not FLAG tagged in the patch-clamp experiments; nothing is said of tags for ITC; also called WT CaM; WT-CaM
The assay can be described thus: ITC; Microcal VP-ITC, 25°C, 10 mM Mops, 2 mM EGTA, 1 mM TCEP, 150 mM KCl, pH 7, 0 Ca2+; NaV1.5CTD (55-75 uM) or NaV1.6CTD (73-110 uM) peptide and WT CaM or D96V-CaM (5-15 uM); fitted to a model of 1 binding site per monomer.

Assay [2] has as its target T1, WT calmodulin. The assay can be described thus: ITC; Microcal VP-ITC, 25°C, 10 mM Mops, 2 mM EGTA, 1 mM TCEP, 150 mM KCl, 1.93 mM CaCl2, pH 7, 10 uM free Ca2+; NaV1.6CTD (73-110 uM) peptide and WT-CaM (12 uM) or D96V-CaM (16 uM); fitted to a one-binding site per monomer model.
Assay [3] addresses T2, wild-type calmodulin (UniProt P0DP23 1-149).
T2 construct: Calmodulin (CaM), recombinant; GenBank M19381.1 (mouse CaM I) is printed only for the transgene of the mice, not for the recombinant protein; also called WT CaM; CaM
The assay is described as follows: ITC; in the presence of 10 uM free Ca2+; NaV1.6CTD peptide and WT CaM or D96V-CaM.

Assay [4] concerns the target T2, wild-type calmodulin. The assay is described as follows: ITC; 0 Ca2+; Microcal VP-ITC, 25°C, 10 mM Mops, 2 mM EGTA, 1 mM TCEP, 150 mM KCl, pH 7; NaV1.5CTD (55-75 uM) or NaV1.6CTD (73-110 uM) peptides and WT CaM or D96V-CaM (5-15 uM); 28 injections; fitted to a model of 1 binding site per monomer. In general terms: ITC needs no label: the signal is the heat of the interaction.

B1: hNaV1.6CTD peptide (residues 1891-1918 of human NaV1.6) (peptide)
peptide: RRKQEEVSAVVLQRAYRGHLARRGFICK
notes: human NaV1.6 carboxy terminal domain stretch with the IQ motif, residues 1891-1918; source: synthetic peptide (LifeTein), at least 90% purity by HPLC
Turning to B1, the “stoichiometry N” value with WT calmodulin [1] and with WT calmodulin [2] was 1 each time.

B2: hNaV1.6CTD peptide (residues 1891-1918 of human NaV1.6) (peptide)
peptide: RRKQEEVSAVVLQRAYRGHLARRGFICK
notes: Carboxy terminal domain peptide with the IQ motif of human NaV1.6, residues 1891-1918; source: synthetic peptide (LifeTein), at least 90% purity by HPLC
As for B2, the Kd was 0.132 µM with wild-type calmodulin [3] and 0.243 µM with wild-type calmodulin [4].
